Values of other authors in PMC8335159.

Key:
[1] = target: VWF peptide 1660-1668 (Homo sapiens) (UniProt P04275)
[2] = target: TIMP-3 cyclic peptide 62-68 (Homo sapiens)
[3] = target: TIMP-3 cyclic peptide 61-70 (Homo sapiens)
[4] = target: TIMP-3 cyclic peptide 60-70 (Homo sapiens)

Ki [1] [µM] | Kd [2] [µM] | Kd [3] [µM] | Kd [4] [µM] | Substance
1 |  |  |  | ADAMTS-13 (from UniProt Q76LX8)
 | 25 | 3.7 | 18 | ADAM-17 (from UniProt P78536)
